Source: IntAct's records for PubMed 19400808

B1: Nitrogen regulatory protein (Escherichia coli (strain K12)), P69829 (parent)
chain: MTNNDTTLQLSSVLNRECTRSRVHCQSKKRALEIISELAAKQLSLPPQVVFEAILTREKMGSTGIGNGIAIPHGKLEEDTLRAVGVFVQLETPIAFDAIDNQPVDLLFALLVPADQTKTHLHTLSLVAKRLADKTICRRLRAAQSDEELYQIITDTEGTPDEA
partner: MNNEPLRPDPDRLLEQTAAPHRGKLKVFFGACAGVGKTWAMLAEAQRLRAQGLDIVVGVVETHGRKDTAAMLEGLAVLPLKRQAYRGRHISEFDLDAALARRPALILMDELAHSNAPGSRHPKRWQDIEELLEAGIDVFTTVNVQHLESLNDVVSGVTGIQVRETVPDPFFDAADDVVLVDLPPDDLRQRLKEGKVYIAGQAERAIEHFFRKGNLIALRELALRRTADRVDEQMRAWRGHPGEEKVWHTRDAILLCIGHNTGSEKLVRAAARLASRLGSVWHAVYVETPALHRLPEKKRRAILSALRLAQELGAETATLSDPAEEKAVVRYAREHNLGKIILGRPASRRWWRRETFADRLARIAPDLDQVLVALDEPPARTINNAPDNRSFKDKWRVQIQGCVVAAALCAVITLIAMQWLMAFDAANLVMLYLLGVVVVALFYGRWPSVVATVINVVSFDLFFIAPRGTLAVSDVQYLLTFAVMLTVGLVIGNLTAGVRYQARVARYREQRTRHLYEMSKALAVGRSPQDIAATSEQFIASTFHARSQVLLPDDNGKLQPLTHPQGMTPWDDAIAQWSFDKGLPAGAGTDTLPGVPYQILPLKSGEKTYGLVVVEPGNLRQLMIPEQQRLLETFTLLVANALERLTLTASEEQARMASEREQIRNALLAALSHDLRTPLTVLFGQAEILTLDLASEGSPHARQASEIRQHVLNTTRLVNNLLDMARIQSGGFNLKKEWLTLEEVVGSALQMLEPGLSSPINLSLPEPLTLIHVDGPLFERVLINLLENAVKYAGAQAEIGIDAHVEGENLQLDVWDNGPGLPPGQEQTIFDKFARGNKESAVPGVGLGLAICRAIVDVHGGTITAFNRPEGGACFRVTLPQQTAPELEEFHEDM

Variants of: B1
Settings: with kdpd_ecoli kdpD

Row | effect of a mutation on the interaction | Variant
1 | increasing interaction strength | H73A
